According to the DeepSol protein solubility set:

Assay: soluble on expression in E. coli; label from the status in PepcDB or PDB records
For “MSLSAPRITRVETAAIRAVGPSVLVRVWAGDEHGLGECYPSAPAAGIHHIVMNMEEQLLGEDPRDVERLYEKMRRWNIFTGGQAGAVITALSGIETALWDLAGKLQGVPVYRLLGGAFRRRVRLYADCNAGTVDAAAHHIEGGLFEEGSNEEYIAVAREAVERGFDAIKLDVDDITGPLHRDFWNGAISPREHEAMVARVAAVREAVGPEVEVAIDMHGRFDIPSSIRFARAMEPFGLLWLEEPTPPENLDALAEVRRSTSTPICAGENVYTRFDFRELFAKRAVDYVMPDVAKCGGLAEAKRIANLAELDYIPFAPHNVSSPVGTVAAAHVCAAVSNFAVLEWHAIDMPHWEDFVRYPGGPVIREGHIELTEEPGLGLELDEEAAFEHRHEKGGVPFFGRTEGHHHHHH”, the “soluble on expression in E. coli” value was “soluble”. With “MGSDKIHHHHHHMFLEKLVEMARGKGKKLAVAAANDDHVIEAVYRAWRERVCEPVLFGPEEEITRIIEELVPEWKNPQIIDCPPEEAGRLAVEAVSKGECDFLMKGKIKTGDLMKIYLDERYGLRTGKTMAMVSVMEIPDFPRPLIISDPGMLISPTLEQKVDMIEHCVRVANVMGLETPKVAVVGAIEVVNPKMPITMEAAILSKMNQRGQIKGCIVDGPFALDNVVSEEAAKKKGIQSPVAGKADILILPDIEAANILYKALVFLAKAKSASTILGGKVPVVLTSRADSEETKFYSIALSAVFA” the “soluble on expression in E. coli” value was “not soluble”. In the case of “MAIPDYQAVMLPLLKYAGDGKEHHIRDAIEKLAEEFELSEEERKELLPSGQQAIFKNRIGWANTYLKKAGLLGSRKKGYFSITRRGLDVLREKPPSIDVSFLKRYKEFNEFYNKDKQVLIDKPDVPEAEGKRALDPEESLEIAYQKLHNELVSEIISTTKKCSPAFFESLVVDVLTKMGYGGSRVDAGKAIGKSHDGGIDGIIKEDRLGLDVIYIQAKRWEGTVSKPEIQKFAGALIGKKAKKGVFITTSSFSKEAIEYADFTGNIVLVDGEMLARLMIEYNVGVSRVKSYEVKKMDTDYFEDGVI”, the “soluble on expression in E. coli” value was “not soluble”. In the case of “MLQKDPCLDDILENSEKLENNSNKKNIDSIDTIKLSDIIEKMIEINSIVRIEKIFEEKIVSQNPVVNVVVNDGSARGLLSLWSEQISLLNELNEGDAILIENAHAPKKYKDRIHLALSKSGKISKIESDLPTIDELLKKSSAQRNDFSRKSISELKEGIGAELRGLIVAIHSKEPYFPVCDKCNKKMTLKKGYAVCKCGNKVDEEDENLKWLFLCTCTLDDGSGTIRVTLNNNTNYLDLEELKKIIIDDEEILDVLNNKLLGLDILTSGFTIYDEYLKDTAFRCNNWNKIDIMEEFNKKLKGLEHHHHHH”, the “soluble on expression in E. coli” value was “soluble”. With “VDRYNDQASGRALIEIRLCNERATPMPIPIGLWMFQTKLHVNAGGADVFLPVCDVLEQDLAERDEEVRQLNLQYRNRLEYAIGRTCSAAWSVNGSRRPSAVWTTWLPVAETPHTRARSVENALLSMDSRGGVT” the “soluble on expression in E. coli” value was “not soluble”. In the case of “MSLGNAPLPFDVGGPFELTDQHGARRSQADPQGHGQLLFFGYATCPGICSAAMPMMADAVDRLAEAGIPVTPVMITVDPERDRPGEMNAPLARYHPDFIGLTGSEAELQAAYSAYSVERELAYVDPEYGPVYTHGAFIYLLDAKGEVLSLFPPILSSDRVVELARKYLGSEGEGHHHHHH”, the “soluble on expression in E. coli” value was “soluble”. In the case of “KSIELYENNIPNGKTDAILIKNQTLISALKNPKQTKSSQRSSQSTNTQNDAICYLAFNSKIRPDDKDIFLLDKFGEKFVTAIVNFEEKTEVKINTLQEKEAVVLPAPQKFKPTDPKSVALVQGPSLIGIHANANEDRSTIKFLNW”, the “soluble on expression in E. coli” value was “not soluble”. For “MNPIEIIDKFYPQDTEQRHILLIHSLSVAQKALKIVDAHPNLPINRSFVREAALLHDIGIFMTDAPTIQCFGEHPYIAHGYLGADLLRKEGFERHALVCERHTGAGLTLEEIIERQLPVPHREMVPVTLEEQIICFADKFFSKTHLDEEKTVEKARKSIAKYGEEGLNRFDGWCSLFL”, the “soluble on expression in E. coli” value was “not soluble”. With “MFRISQLLKTLHDDMAELKPVKASRKMKGPVVIWNLIRRCNLQCKHCYSTSLDIDFKDELSTEQVKTTIDDLKVAHVPVLILSGGEPLLRPDIYEITEYAKQKGFYLALSTNGTLINEDNIEAIKAAEYQYVGISIDGLEEFHDEFRRQKGSFKTSMHAIKLCKDAGIKVGMRLCLTRENFKDLPAMLNLMEENSVDKFYLSHLNYSGRGKRTAENDAMFKMTKDAMELLYERAWTHINQGIETDFVTGNNDADGPFLLQWASKQFAEEYPEAIANLKQRLINWGGNSSGINVANIDNTGTIHPDTYWWNHPIGNVTTEKFSDVWRDTQDPLMLGFRQTPRPVKGRCASCEHLAICGGNTRTRAFAQSGDAWAEDPGCYLDDDEIGFIPSPSKFADELTNTENPIQFVEV” the “soluble on expression in E. coli” value was “not soluble”. In the case of “MSLDAVRAVLIDIDGVLTVSWKPLPGAIEALHRIRDASLGVVLLTNTTSRTRASIAATLGASGFPVSAEDILTAPTATAAHLTDHCPGARCSLLNSGDIREDLVGVTLLDDTDTVPDVVIVGGAGPEFDYAALNRVFGHLQRGARLVAMHRNLYWRTDRGLDLDSGAFLLGLEHAAGTRAEITGKPAPAFFEAALTRLGAGPGQAVMVGDDIESDVLAAQRTGITGVLVKTGKYLPETHHAASARPDHVLDSVADLPALLDSVVREGHHHHHH”, the “soluble on expression in E. coli” value was “soluble”. In the case of “MSLDFWLYKQAQQNGHHIAITDGQESYTYQNLYCEASLLAKRLKAYQQSRVGLYIDNSIQSIILIHACWLANIEIAMINTRLTPNEMTNQMRSIDVQLIFCTLPLELRGFQIVSLDDIEFAGRDITTNGLLDNTMGIQYDTSNETVVPKESPSNILNTSFNLDDIASIMFTSGTTGPQKAVPQTFRNHYASAIGCKESLGFDRDTNWLSVLPIYHISGLSVLLRAVIEGFTVRIVDKFNAEQILTMIKNERITHISLVPQTLNWLMQQGLHEPYNLQKILLGGAKLSATMIETALQYNLPIYNSFGMTETCSQFLTATPEMLHARPDTVGMPSANVDVKIKNPNKEGHGELMIKGANVMNGYLYPTDLTGTFENGYFNTGDIAEIDHEGYVMIYDRRKDLIISGGENIYPYQIETVAKQFPGISDAVCVGHPDDTWGQVPKLYFVSESDISKAQLIAYLSKHLAKYKVPKHFEKVDTLPYTSTGKLQRNKLYREGHHHHHH”, the “soluble on expression in E. coli” value was “soluble”. For “MNNFILLEEQLIKKSQQKRRTSPSNFKVRFFVLTKASLAYFEDRHGKKRTLKGSIELSRIKCVEIVKSDISIPCHYKYPFQVVHDNYLLYVFAPDRESRQRWVLALKEETRNNNSLVPKYHPNFWMDGKWRCCSQLEKLATGCAQYDPTKNASKKPLPPTPEDNRRPLWEPEETVVIALYDYQTNDPQELALRRNEEYCLLDSSEIHWWRVQDRNGHEGYVPSSYLVEKSPNNLETYEWYNKSISRDKAEKLLLDTGKEGAFMVRDSRTAGTYTVSVFTKAVVSENNPCIKHYHIKETNDNPKRYYVAEKYVFDSIPLLINYHQHNGGGLVTRLRYPVCFGRQKAPVTAGLRYGKWVIDPSELTFVQEIGSGQFGLVHLGYWLNKDKVAIKTIREGAMSEEDFIEEAEVMMKLSHPKLVQLYGVCLEQAPICLVFEFMEHGCLSDYLRTQRGLFAAETLLGMCLDVCEGMAYLEEACVIHRDLAARNCLVGENQVIKVSDFGMTRFVLDDQYTSSTGTKFPVKWASPEVFSFSRYSSKSDVWSFGVLMWEVFSEGKIPYENRSNSEVVEDISTGFRLYKPRLASTHVYQIMNHCWKERPEDRPAFSRLLRQLAEIAESGL”, the “soluble on expression in E. coli” value was “soluble”. For “ISVDTLNTKELIEAINLGADMILSVDAGNLDELIPYLKDSETAVVVLPTNYKTNYVPETIEGKIKSLEENIKKLIDAGIEKIVADPILEPINNAGCSFIESVIACREFKKRNKLPLFFGVGNVTELFDADSNGVNALLAAIGAEIGANILFTPEASAKCKFSIKELKIASKMMFLAKKRNSLPKDIGYNLINYKDKRFEEEITFNSYNIPIIKAEEDERQILDEGSFKIEIDRKNKEIVAIYFNKRREPVLIIRGKKPKEIYETAIRLNLIKKLDHASYFGRELAKAEIALRIGKKYNQDFDLF”, the “soluble on expression in E. coli” value was “not soluble”. In the case of “MGSDKIHHHHHHMHVKRAATAGFCMGVGLALKKLDRELDNNAKDIATLGPIIHNPQVLRRYEQKGVRCYTDPAEARSGQRVVIRAHGIPEETESALAAAGVDLVDATCPKVKRAQLGIARQREKGRTLLLFGEHDHPEVQGLLSYAGEGAVVFGSLEELQNGPLEDDRHYFLAAQTTQDKHAFTSVIEWVRRRFGDHVPVLDTICDATRERQDEAIAIARSVDVMVVVGGFASGNTRRLAEVAQAQGVPTYHVETPDQLPLDAIRGYGAAGLTAGASTPKSIIDETQKLLESL”, the “soluble on expression in E. coli” value was “not soluble”. For “MGSDKIHHHHHHMPTIHFVDGEKGGVGKSLFARTMIQYCLDKRIPFVPVETDRSNPDVAGVYKEICKYAVFSENERQANKADRIFEWAIERPVIVNLAAQSHRAVQGWIESNQLLELGSSQGVMFCKWFISTGGYDSINLFTQSVNTYGEKIPHILVRNLGLCDDWEHLESDSNFQNIVNKYQIKVIDFPKLAYRERNIIDQNRLTFAEAREYKEFGIIGKQRVVNFLKLAYGAFEKVGIWYEKVE”, the “soluble on expression in E. coli” value was “not soluble”. In the case of “MKVMNIIHDSVVDGEGLRTVVFFAGCPHRCFGCHNPKSWNICNGTEMTVEEIVKEIASNPLTDVTFSGGDPFFQAAEVKKVAKAVKDLKKNLWMYTGYTLEEIQSSQNNDMIELLHYGDVLVDGRFEIGKKDLTLPFRGSSNQRIIRLKELEHHHHHH”, the “soluble on expression in E. coli” value was “soluble”. For “MKQPTLAVIMTCHNRRNTTLACLQALYQQKNHFDVYLTDDGSTDGTAEFIKAEYPDVKIFQGDGNLFWVGGMHLAFGEAIKNQYDYYLWLNDDTFLEADALEKLLQVHENLAVEGYGQSIVVGSTQDPITKQATYGGAVKSKKWYSNKFEFLEPTSDVQKCDAMYGNCVLIPHSVTLKVGNIDTAFIHSLGDLDYALRARNLGLEHHHHHH”, the “soluble on expression in E. coli” value was “not soluble”. In the case of “MQDADKLPHTKVTLVAPPQVHPHEQATKSGPKVVEFTMTIEEKKMVIDDKGTTLQAMTFNGSMPGPTLVVHEGDYVQLTLVNPATNAMPHNVDFHGATGALGGAKLTNVNPGEQATLRFKADRSGTFVYHCAPEGMVPWHVVSGMSGTLMVLPRDGLKDPQGKPLHYDRAYTIGEFDLYIPKGPDGKYKDYATLAESYGDTVQVMRTLTPSHIVFNGKVGALTGANALTAKVGETVLLIHSQANRDTRPHLIGGHGDWVWETGKFANPPQRDLETWFIRGGSAGAALYTFKQPGVYAYLNHNLIEAFELGAAGHIKVEGKWNDDLMKQIKAPAPIPR”, the “soluble on expression in E. coli” value was “soluble”. With “CGGCGEDVVGDGAGVVALDRVFHVGCFVCSTCRAQLRGQHFYAVERRAYCEGCYVATLE” the “soluble on expression in E. coli” value was “soluble”. With “MGSDKIHHHHHHMSSEMNGTAPFQDQGATDVSLLEDIVRVTKLQPADEAYSITRRGVAALMAQLLEPGAEARKVSKAVLDDMIAEIDRKLSLQMDEILHHPQFQALESSWRSLHFLVDRTDFRENNRIEFLNATKEELLDDFEDAPEVAKSGLYKTVYSAEYGQFGGKPFGAIIGNYDFGPGAQDIKLLQSLAAVAGMAHAPFMAAASPQFFGCDDFTALPNLKDISSILEGPQYAKWQAFRESEDARYVGLALPRFLLRLPYGEATRPAKCFNYEEQVSDSHDRYCWGNAAFAFATRLTESFANFRWCANIIGPQGGGTVHDLPLHQYQAMGAIQTKIPTEVLISERREFELAEGGFIALTMRKGSDNAAFFSANSVQKPKFFGSSKEGKEAELNYKLGLQLPYMFIVSRLAHYLKVIQREHIGTWKERGDLENELNLWIRQYVSEMDNPMPGVRSRRPLRQAEVTVEEVPGEPGWYRVGLKVTPHFKYMGAYFTLSLVGKLDKE” the “soluble on expression in E. coli” value was “not soluble”. For “ETDKKGENAPDTKRIKETLEKFSLENMRYVGILKSGQKVSGFIEAEGYVYTVGVGNYLGQNYGRIESITDDSIVLNELIEDSTGNWVSRKAELLLNSSDKNTEQAAAPAAEQN”, the “soluble on expression in E. coli” value was “soluble”.
